B1: Polyhomeotic-proximal chromatin protein (Drosophila melanogaster (Fruit fly)), P39769 (parent)
chain: MDRRALKFMQKRADTESDTTTPVSTTASQGISASAILAGGTLPLKDNSNIREKPLHHNYNHNNNNSSQHSHSHQQQQQQQVGGKQLERPLKCLETLAQKAGITFDEKYDVASPPHPGIAQQQATSGTGPATGSGSVTPTSHRHGTPPTGRRQTHTPSTPNRPSAPSTPNTNCNSIARHTSLTLEKAQNPGQQVAATTTVPLQISPEQLQQFYASNPYAIQVKQEFPTHTTSGSGTELKHATNIMEVQQQLQLQQQLSEANGGGAASAGAGGAASPANSQQSQQQQHSTAISTMSPMQLAAATGGVGGDWTQGRTVQLMQPSTSFLYPQMIVSGNLLHPGGLGQQPIQVITAGKPFQGNGPQMLTTTTQNAKQMIGGQAGFAGGNYATCIPTNHNQSPQTVLFSPMNVISPQQQQNLLQSMAAAAQQQQLTQQQQQFNQQQQQQLTQQQQQLTAALAKVGVDAQGKLAQKVVQKVTTTSSAVQAATGPGSTGSTQTQQVQQVQQQQQQTTQTTQQCVQVSQSTLPVGVGGQSVQTAQLLNAGQAQQMQIPWFLQNAAGLQPFGPNQIILRNQPDGTQGMFIQQQPATQTLQTQQNQIIQCNVTQTPTKARTQLDALAPKQQQQQQQVGTTNQTQQQQLAVATAQLQQQQQQLTAAALQRPGAPVMPHNGTQVRPASSVSTQTAQNQSLLKAKMRNKQQPVRPALATLKTEIGQVAGQNKVVGHLTTVQQQQQATNLQQVVNAAGNKMVVMSTTGTPITLQNGQTLHAATAAGVDKQQQQLQLFQKQQILQQQQMLQQQIAAIQMQQQQAAVQAQQQQQQQVSQQQQVNAQQQQAVAQQQQAVAQAQQQQREQQQQVAQAQAQHQQALANATQQILQVAPNQFITSHQQQQQQQLHNQLIQQQLQQQAQAQVQAQVQAQAQQQQQQREQQQNIIQQIVVQQSGATSQQTSQQQQHHQSGQLQLSSVPFSVSSSTTPAGIATSSALQAALSASGAIFQTAKPGTCSSSSPTSSVVTITNQSSTPLVTSSTVASIQQAQTQSAQVHQHQQLISATIAGGTQQQPQGPPSLTPTTNPILAMTSMMNATVGHLSTAPPVTVSVTSTAVTSSPGQLVLLSTASSGGGGSIPATPTKETPSKGPTATLVPIGSPKTPVSGKDTCTTPKSSTPATVSASVEASSSTGEALSNGDASDRSSTPSKGATTPTSKQSNAAVQPPSSTTPNSVSGKEEPKLATCGSLTSATSTSTTTTITNGIGVARTTASTAVSTASTTTTSSGTFITSCTSTTTTTTSSISNGSKDLPKAMIKPNVLTHVIDGFIIQEANEPFPVTRQRYADKDVSDEPPKKKATMQEDIKLSGIASAPGSDMVACEQCGKMEHKAKLKRKRYCSPGCSRQAKNGIGGVGSGETNGLGTGGIVGVDAMALVDRLDEAMAEEKMQTEATPKLSESFPILGASTEVPPMSLPVQAAISAPSPLAMPLGSPLSVALPTLAPLSVVTSGAAPKSSEVNGTDRPPISSWSVDDVSNFIRELPGCQDYVDDFIQQEIDGQALLLLKEKHLVNAMGMKLGPALKIVAKVESIKEVPPPGEAKDPGAQ
B2: Polycomb protein Scm (Drosophila melanogaster (Fruit fly)), Q9VHA0 (parent)
chain: MSGGRDSSTSSGSNSAAPGASTNATSSASASASSTSTSASPGSTTSPASTQRQRGRPAKRATCTWCGEGKLPLQYVLPTQTGKKEFCSETCIAEFRKAYSKGACTQCDNVIRDGAPNKEFCSIMCMNKHQKKNCSTRHSGGSASGKGLAESERKLLASGAPAPTGPFQYESFHVFDWDAYLEETGSEAAPAKCFKQAQNPPNNDFKIGMKLEALDPRNVTSTCIATVVGVLGSRLRLRLDGSDSQNDFWRLVDSTEIHAIGHCEKNGGMLQPPLGFRMNASSWPGYLCKILNNAMVAPEEIFQPEPPEPEENLFKVGQKLEAVDKKNPQLICCATVDAIKDDQIHVTFDGWRGAFDYWCNYRSRDIFPAGWCARSCHPMQPPGHKSRMDSSSSKQRCPRPRYTVVAESEAMVPASPATAHFHPNCKGGPFINNSKLPCMVTGPTYQTLAKLCLQEVLAASTDTQQLSKLLFALEGDVHIVTAAGKNFTVKIPSPMRMKDDESLAQFIETLCTTCRACANLISLVHETEECKKCANSRKRQLTQSATPPSSPVLADKRNRQSNSATTSPSEKIIKQELAVKSPVESKSKTSTNNGKEPASQQNSNHSLNNNNNSASKSSNKVVIKSEPNGANAQTSSTTQALRKVRFQHHANTNTNSSATNGNQDTSQTTHVSTSHCSSSSTSSSTSLAGGSANTSTIGKYLAPLVAEVHPEQANVKPSNSYYKSPTTLSSSASLPTSVSTPFTGCQSASSTALAAGGVTAAKAATAPAGAAATAGASPSYTAITSPVSTPTSALANSHLRSQPIDWTIEEVIQYIESNDNSLAVHGDLFRKHEIDGKALLLLNSEMMMKYMGLKLGPALKICNLVNKVNGRRNNLAL

The variants in one assay derive from B1. The settings on record: with scm_drome Scm, Q9VHA0.
Consider W1513A, for which the “effect of a mutation on the interaction” value is given as “decreasing interaction”.

Turning to G1562A, the “effect of a mutation on the interaction” value is “decreasing interaction”.

The variants in another assay derive from B2. The settings on record: with php_drome ph-p, P39769.
In the case of G836S, the “effect of a mutation on the interaction” value is “decreasing interaction”.

The values are drawn from IntAct's records for PubMed 9343432.
